The results in this text go back to article PMC11417369, “DNA sequence and chromatin differentiate sequence-specific transcription factor binding in the human malaria parasite Plasmodium falciparum”.

B1: XGTACX_negctrl_site244 (dsDNA)
DNA 1: AAAAATATGAAGACACAATATAGAAATAAAAATATA
DNA 2: TATATTTTTATTTCTATATTGTGTCTTCATATTTTT
B2: XGTACX_negctrl_site190 (dsDNA)
DNA 1: AATAGAAACATTTTACATGTATATATAATTTTTTTT
DNA 2: AAAAAAAATTATATATACATGTAAAATGTTTCTATT
B3: XGTACX_negctrl_site374 (dsDNA)
DNA 1: AATAAACATTATTTTCGTATTCCAATTCTTTTTTTT
DNA 2: AAAAAAAAGAATTGGAATACGAAAATAATGTTTATT
B4: XGTACX_negctrl_site461 (dsDNA)
DNA 1: ATGAATTTTTCTCTACAAAAGGATATAATAAAAATA
DNA 2: TATTTTTATTATATCCTTTTGTAGAGAAAAATTCAT
B5: XGTACX_negctrl_site421 (dsDNA)
DNA 1: TATAAGAGAAGAAGAAAAAAAAGGTTTCTATAGAAA
DNA 2: TTTCTATAGAAACCTTTTTTTTCTTCTTCTCTTATA
B6: XGTACX_negctrl_site66 (dsDNA)
DNA 1: TTTTGAGAAAAAATAAAATAATAAATAAAAATACAT
DNA 2: ATGTATTTTTATTTATTATTTTATTTTTTCTCAAAA
B7: XGTACX_negctrl_site268 (dsDNA)
DNA 1: AAAACAAATTTTAATGAGAATATGAAAAAAAAATAT
DNA 2: ATATTTTTTTTTCATATTCTCATTAAAATTTGTTTT
B8: XGTACX_negctrl_site224 (dsDNA)
DNA 1: TTGTTTCTTAAATTATTTATTTTATATTAAAAAAAA
DNA 2: TTTTTTTTAATATAAAATAAATAATTTAAGAAACAA
B9: XGTACX_negctrl_site80 (dsDNA)
DNA 1: AAACATTTATCAATGAATCTTTTAATAAGTGTAAAG
DNA 2: CTTTACACTTATTAAAAGATTCATTGATAAATGTTT
B10: XGTACX_negctrl_site480 (dsDNA)
DNA 1: TTGATAAAAAAAAAAAAATAAAAAAAAAATAAAAAA
DNA 2: TTTTTTATTTTTTTTTTATTTTTTTTTTTTTATCAA
B11: XGTACX_negctrl_site149 (dsDNA)
DNA 1: AGAATTTAGAAACAATGTTGTATATGTAATACCTTT
DNA 2: AAAGGTATTACATATACAACATTGTTTCTAAATTCT
B12: XGTACX_negctrl_site507 (dsDNA)
DNA 1: ATAAAAAATAAATATATACATACATACATACATATA
DNA 2: TATATGTATGTATGTATGTATATATTTATTTTTTAT
B13: XGTACX_negctrl_site501 (dsDNA)
DNA 1: AAATTATAAAAAAAAAAAAAAAAAAAAAAAAAAAAA
DNA 2: TTTTTTTTTTTTTTTTTTTTTTTTTTTTTATAATTT
B14: XGTACX_negctrl_site426 (dsDNA)
DNA 1: TATTAAAATTAAAAAAAAAAAAAAAAGCAATAAAAA
DNA 2: TTTTTATTGCTTTTTTTTTTTTTTTTAATTTTAATA
B15: XGTACX_negctrl_site347 (dsDNA)
DNA 1: AAAATGGAACTAGGAATAATATAAGAAGATAAAAGG
DNA 2: CCTTTTATCTTCTTATATTATTCCTAGTTCCATTTT
B16: XGTACX_negctrl_site187 (dsDNA)
DNA 1: AATATATATATATATATATATATTTCAATATATAAA
DNA 2: TTTATATATTGAAATATATATATATATATATATATT
B17: XGTACX_negctrl_site183 (dsDNA)
DNA 1: TATTTTTCTTTTTAAAAATATATCACATGAACATTA
DNA 2: TAATGTTCATGTGATATATTTTTAAAAAGAAAAATA
B18: XGTACX_negctrl_site69 (dsDNA)
DNA 1: AGAGTAGGAAATGGAAAAATAAAATAAATAAATAAA
DNA 2: TTTATTTATTTATTTTATTTTTCCATTTCCTACTCT
B19: XGTACX_negctrl_site26 (dsDNA)
DNA 1: TATAATTTTTTTGAATTATATATATATATATATAAT
DNA 2: ATTATATATATATATATATAATTCAAAAAAATTATA
B20: XGTACX_negctrl_site39 (dsDNA)
DNA 1: TTTTTAATTATCTTTTCCCATGGTTTCTCCGTTTTT
DNA 2: AAAAACGGAGAAACCATGGGAAAAGATAATTAAAAA
B21: XGTACX_negctrl_site331 (dsDNA)
DNA 1: AAGGAATAAAATTTAGAAGACAATTTTATTTCAGTA
DNA 2: TACTGAAATAAAATTGTCTTCTAAATTTTATTCCTT
B22: XGTACX_negctrl_site180 (dsDNA)
DNA 1: TACATATAAATATATAAATATAAATAAATAAATAAA
DNA 2: TTTATTTATTTATTTATATTTATATATTTATATGTA
B23: XGTACX_negctrl_site200 (dsDNA)
DNA 1: GTCCTTATGGATGATAAATTATTTTAAATATTCTAT
DNA 2: ATAGAATATTTAAAATAATTTATCATCCATAAGGAC
B24: XGTACX_negctrl_site35 (dsDNA)
DNA 1: TTTTGACTAATATAATATGTTAAGAATTAATAAATA
DNA 2: TATTTATTAATTCTTAACATATTATATTAGTCAAAA
B25: XGTACX_negctrl_site600 (dsDNA)
DNA 1: TTGAAATATACGTAAGTAAATTTCATTTGGTTGTGT
DNA 2: ACACAACCAAATGAAATTTACTTACGTATATTTCAA
B26: XGTACX_negctrl_site572 (dsDNA)
DNA 1: TTAGGAAGCTCACAAAATAAAGTGAAAAGAAGAAAA
DNA 2: TTTTCTTCTTTTCACTTTATTTTGTGAGCTTCCTAA
B27: XGTACX_negctrl_site102 (dsDNA)
DNA 1: TTCTTTTTATTTATATTTTCCCCTCTCTATAGCTAT
DNA 2: ATAGCTATAGAGAGGGGAAAATATAAATAAAAAGAA
B28: XGTACX_negctrl_site181 (dsDNA)
DNA 1: ATTCGTAGTTTTATGAATTAATATAATAAAAATTAA
DNA 2: TTAATTTTTATTATATTAATTCATAAAACTACGAAT
B29: XGTACX_negctrl_site160 (dsDNA)
DNA 1: ACATGCCAAAATCTAATACAATAATAATAAAAAAAA
DNA 2: TTTTTTTTATTATTATTGTATTAGATTTTGGCATGT
B30: XGTACX_negctrl_site283 (dsDNA)
DNA 1: TACTAAAATATATATATGCAACATGAGATATTCAAC
DNA 2: GTTGAATATCTCATGTTGCATATATATATTTTAGTA
B31: XGTACX_negctrl_site188 (dsDNA)
DNA 1: AAAGTATAACGGATACCATTTATGTGATTATTTTGT
DNA 2: ACAAAATAATCACATAAATGGTATCCGTTATACTTT
B32: XGTACX_negctrl_site279 (dsDNA)
DNA 1: TTTTTACTATAAGGGGAAAAAAAAAAAAATAATATA
DNA 2: TATATTATTTTTTTTTTTTTCCCCTTATAGTAAAAA
B33: XGTACX_negctrl_site524 (dsDNA)
DNA 1: AAAACTATTAATGCAAAAAATAAAATATAATAATAA
DNA 2: TTATTATTATATTTTATTTTTTGCATTAATAGTTTT
B34: XGTACX_negctrl_site595 (dsDNA)
DNA 1: TTATATTATGTTCAATCAAAAATTATTTTTAAAAAA
DNA 2: TTTTTTAAAAATAATTTTTGATTGAACATAATATAA
B35: XGTACX_negctrl_site546 (dsDNA)
DNA 1: AGCCCTTTTTTTTTTTAGAATATTGCATAATTATAT
DNA 2: ATATAATTATGCAATATTCTAAAAAAAAAAAGGGCT
B36: XGTACX_negctrl_site88 (dsDNA)
DNA 1: AAGGGGAGAAAAATAAACGAAATATATACATACATA
DNA 2: TATGTATGTATATATTTCGTTTATTTTTCTCCCCTT
B37: XGTACX_negctrl_site14 (dsDNA)
DNA 1: AAATAAAAAGAAAAGAAAAAGAAAATAAAAAGAGAA
DNA 2: TTCTCTTTTTATTTTCTTTTTCTTTTCTTTTTATTT
B38: XGTACX_negctrl_site395 (dsDNA)
DNA 1: TTATTAGAGATGTTAAGATATAGGGATAATTTCGAT
DNA 2: ATCGAAATTATCCCTATATCTTAACATCTCTAATAA
B39: XGTACX_negctrl_site448 (dsDNA)
DNA 1: ATATAAGATTACAAAAATTATGTGTAAATATTTAAT
DNA 2: ATTAAATATTTACACATAATTTTTGTAATCTTATAT
B40: XGTACX_negctrl_site277 (dsDNA)
DNA 1: TTATTTTACTTTTATGCAACTAAAAATATTGCTATA
DNA 2: TATAGCAATATTTTTAGTTGCATAAAAGTAAAATAA
B41: XGTACX_negctrl_site614 (dsDNA)
DNA 1: TAATTCGCAAAAGAAAGAAATTAAGAAAAAGAAAAA
DNA 2: TTTTTCTTTTTCTTAATTTCTTTCTTTTGCGAATTA

The series deals with T1, AP2-G D1 (Plasmodium falciparum, UniProt Q8I5I9 2123-2245).
T1 sequence: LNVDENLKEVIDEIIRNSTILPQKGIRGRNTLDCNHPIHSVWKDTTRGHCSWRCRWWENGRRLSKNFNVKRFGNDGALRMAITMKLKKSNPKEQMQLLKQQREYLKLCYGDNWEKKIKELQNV
Briefly: gcPBM; about 25 ug protein; PBS, 1% milk, 0.2 mg/ml BSA, salmon testes DNA, 0.03% Triton X-100. The following applies: tags: N-terminal GST (pGEX-4T-1), kept; label: surface-attached array probe.
In the case of B1, the binding signal was 9.84 ln median PBM intensity, better of two orientations.

Consider B2, for which the binding signal is 9.8 ln median PBM intensity, better of two orientations.

With B3, the binding signal was 9.74 ln median PBM intensity, better of two orientations.

For the molecule B4, the binding signal was 9.76 ln median PBM intensity, better of two orientations.

For B5, the binding signal is 9.78 ln median PBM intensity, better of two orientations.

Consider B6, for which the binding signal is 9.8 ln median PBM intensity, better of two orientations.

In the case of B7, the binding signal is 9.74 ln median PBM intensity, better of two orientations.

Take B8: the binding signal is 9.8 ln median PBM intensity, better of two orientations.

Take B9: the binding signal was 9.73 ln median PBM intensity, better of two orientations.

Regarding B10, the binding signal is 9.72 ln median PBM intensity, better of two orientations.

As to B11, the binding signal was 9.82 ln median PBM intensity, better of two orientations.

Turning to B12, the binding signal is 9.8 ln median PBM intensity, better of two orientations.

Turning to B13, the binding signal was 9.83 ln median PBM intensity, better of two orientations.

With B14, the binding signal was 9.73 ln median PBM intensity, better of two orientations.

As for B15, the binding signal is 9.72 ln median PBM intensity, better of two orientations.

As for B16, the binding signal was 9.75 ln median PBM intensity, better of two orientations.

As for B17, the binding signal is 9.84 ln median PBM intensity, better of two orientations.

B18: the binding signal is 9.72 ln median PBM intensity, better of two orientations.

With B19, the binding signal is 9.84 ln median PBM intensity, better of two orientations.

In the case of B20, the binding signal was 9.84 ln median PBM intensity, better of two orientations.

Consider B21, for which the binding signal was 9.81 ln median PBM intensity, better of two orientations.

As to B22, the binding signal is 9.74 ln median PBM intensity, better of two orientations.

As for B23, the binding signal is 9.79 ln median PBM intensity, better of two orientations.

For the molecule B24, the binding signal was 9.84 ln median PBM intensity, better of two orientations.

Turning to B25, the binding signal is 9.84 ln median PBM intensity, better of two orientations.

As to B26, the binding signal was 9.76 ln median PBM intensity, better of two orientations.

As for B27, the binding signal is 9.73 ln median PBM intensity, better of two orientations.

Consider B28, for which the binding signal is 9.77 ln median PBM intensity, better of two orientations.

In the case of B29, the binding signal was 9.83 ln median PBM intensity, better of two orientations.

On to B30, for which the binding signal is 9.82 ln median PBM intensity, better of two orientations.

As to B31, the binding signal is 9.78 ln median PBM intensity, better of two orientations.

As for B32, the binding signal is 9.81 ln median PBM intensity, better of two orientations.

B33: the binding signal was 9.83 ln median PBM intensity, better of two orientations.

As for B34, the binding signal was 9.82 ln median PBM intensity, better of two orientations.

In the case of B35, the binding signal is 9.79 ln median PBM intensity, better of two orientations.

In the case of B36, the binding signal was 9.83 ln median PBM intensity, better of two orientations.

Turning to B37, the binding signal was 9.83 ln median PBM intensity, better of two orientations.

Turning to B38, the binding signal was 9.76 ln median PBM intensity, better of two orientations.

In the case of B39, the binding signal was 9.81 ln median PBM intensity, better of two orientations.

With B40, the binding signal was 9.82 ln median PBM intensity, better of two orientations.

As to B41, the binding signal is 9.81 ln median PBM intensity, better of two orientations.
